The values that follow come from patent publication US6653444 (Dana-Farber, dated 2003).

In the assay the target is CD28 (human, UniProt P10747 19-220). Nature of the assay: cell-based or functional assay.
Sequence of CD28 (P10747 19-220): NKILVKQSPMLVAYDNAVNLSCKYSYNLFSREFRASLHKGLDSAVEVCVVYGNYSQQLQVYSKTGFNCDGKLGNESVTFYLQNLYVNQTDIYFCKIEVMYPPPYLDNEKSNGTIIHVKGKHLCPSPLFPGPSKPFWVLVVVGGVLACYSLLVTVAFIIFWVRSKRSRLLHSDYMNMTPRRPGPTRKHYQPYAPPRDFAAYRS

B1: murine B7 (ligand)
chain: VDEQLSKSVKDKVLLPCRYNSPHEDESEDRIYWQKHDKVVLSVIAGKLKVWPEYKNRTLYDNTTYSLIILGLVLSDRGTYSCVVQKKERGTYGVKHLALVKLSIKADFSTPNITESGNPSADTKRITCFASGGFPKPRFSWLENGRELPGINTTISQDPESELYTISSQLDFNTTRNHTIKCLIKYGDAHVSEDFTWEKPPEDPPDSKNTLVLFGAGFGAVITVVVIVVIIKCFCKHRSCFRRNEASRETNNSLTFGPEEALAEQTVFL
In the case of B1, the “fold enhancement of proliferation of PMA-treated human CD28+ T cells by fixed COS-mB7 cells” value turned out to be 29 fold.

B2: human B7 B cell activation antigen (ligand)
chain: VIHVTKEVKEVATLSCGHNVSVEELAQTRIYWQKEKKMVLTMMSGDMNIWPEYKNRTIFDITNNLSIVILALRPSDEGTYECVVLKYEKDAFKREHLAEVTLSVKADFPTPSISDFEIPTSNIRRIICSTSGGFPEPHLSWLENGEELNAINTTVSQDPETELYAVSSKLDFNMTTNHSFMCLIKYGHLRVNQTFNWNTTKQEHFPDNLLPSWAITLISVNGIFVICCLTYCFAPRCRERRRNERLRRESVRPV
On to B2, for which the “IL-2 secretion with CHO-B7 relative to anti-CD28 mAb, PMA-stimulated CD28+ T cells” value is around 45%; the “fold enhancement of proliferation of PMA-treated human CD28+ T cells by fixed COS-hB7 cells” value was determined as 30 fold; the “fold increase in proliferation of PMA-treated human CD28+ T cells by fixed CHO-hB7 cells” value turned out to be 51 fold; the “proliferation by CHO-B7 relative to anti-CD28 mAb” value is around 28 % less.
